{"source": "paper PMC7237333", "experiment_in_all_cases": "purified protein", "key": {"[1]": {"test_system": "CSC[C@H]1O[C@@H](n2cnc3c(N)ncnc32)[C@H](O)[C@@H]1O", "conditions": "40 mM K-phosphate pH 7.8, 0.1 M MgCl2, 30 °C"}, "[2]": {"test_system": "C[C@H]1O[C@@H](n2cnc3c(N)ncnc32)[C@H](O)[C@@H]1O", "conditions": "40 mM K-phosphate pH 7.8, 0.1 M MgCl2, 30 °C"}, "[3]": {"substrate": "O=P(O)(O)O[C@H]1O[C@H](CO)[C@@H](O)[C@H]1O", "format": "biochemical, Rhodospirillum rubrum", "conditions": "50 mM K-phosphate pH 7.8, 5 mM MgCl2, 0.3 mM CoCl2, 30 °C"}, "[4]": {"substrate": "CSC[C@@H](O)[C@@H](O)C(=O)COP(=O)(O)O", "format": "biochemical, Bacillus subtilis", "conditions": "30 °C (also performed at 35 °C)"}, "[5]": {"substrate": "C[C@@H](O)[C@@H](O)C(=O)COP(=O)(O)O", "format": "biochemical, Bacillus subtilis", "conditions": "35 °C probably (used for weak substrates); 35.0 °C"}, "[6]": {"substrate": "C[C@H]1O[C@H](OP(=O)(O)O)[C@H](O)[C@@H]1O", "format": "biochemical, Escherichia coli", "conditions": "50 mM K-phosphate pH 7.8, 5 mM MgCl2, 0.3 mM CoCl2, 30 °C"}, "[7]": {"substrate": "CSC[C@H]1O[C@H](OP(=O)(O)O)[C@H](O)[C@@H]1O", "format": "biochemical, Escherichia coli", "conditions": "50 mM K-phosphate pH 7.8, 5 mM MgCl2, 0.3 mM CoCl2, 30 °C"}, "[8]": {"substrate": "CSC[C@H]1O[C@H](OP(=O)(O)O)[C@H](O)[C@@H]1O", "format": "biochemical, Bacillus subtilis", "conditions": "50 mM K-phosphate pH 7.8, 5 mM MgCl2, 0.3 mM CoCl2, 30 °C"}}}
{"molecule": "EcMtnN (Escherichia coli K-12)", "values": [{"measurement": "Km", "setting": "[1]", "value": 0.83, "unit": "µM"}, {"measurement": "kcat", "setting": "[1]", "value": 150, "unit": "s⁻¹"}, {"measurement": "kcat/Km", "setting": "[1]", "value": "1.8e+08", "unit": "M⁻¹ s⁻¹"}, {"measurement": "Km", "setting": "[2]", "value": 4.7, "unit": "µM"}, {"measurement": "kcat", "setting": "[2]", "value": 57, "unit": "s⁻¹"}, {"measurement": "kcat/Km", "setting": "[2]", "value": "1.2e+07", "unit": "M⁻¹ s⁻¹"}]}
{"molecule": "RrMtnA (Rhodospirillum rubrum ATCC 11170) (protein) MNVKGTPTRTIWPAREGGAVWIIDQTRLPHEFVTQRLNDLGAVAHAIRAMLVRGAPLIGATAAYGVALGMAEDPSDEGLTRACQTLLATRPTAVNLRWAIEAMAESLAAVPPDQRAQAAWAKAGAICDEDVALNEAIGDHGLGIIKDLARTKGVEKGGEGPINILTHCNAGWLATVDWGTALAPLYKAHDAGLPIHVWVDETRPRNQGASLTAWELNSHGVPHTVIADNTGGHLMQHGLVDMVIVGTDRTTATGDVCNKIGTYLKALAAFDNAVPFYVALPGPTIDWTVNDGLREIPIEQRDAAEVTRVWGRTAAGALEWVTITPTGSPAANYAFDVTPARLITGLITERGVCAASAAGLAGLYPERAPAPVPAGSAAGKGAAATADGAL", "values": [{"measurement": "kcat", "setting": "[3]", "value": 0.03, "unit": "s⁻¹"}, {"measurement": "kcat/Km", "setting": "[3]", "value": "< 20", "unit": "M⁻¹ s⁻¹"}]}
{"molecule": "Bs MtnB (Bacillus subtilis subsp. subtilis str. 168) (protein) MAAKQERWRELAEVKRELAERDWFPATSGNLSIKVTDEPLTFLVTASGKDKRKETVEDFLLVDQNGEPAESGHSLKPSAETLLHTHLYNKTNAGCCLHVHTVNNNVISELYGDQKKITFKGQEIIKALGLWEENAEVTVPIIENPAHIPTLAALFAEEISEDSGAVLIRNHGITAWGKTAFEAKRVLEAYEFLFSYHLKLKTLEHQLVK", "values": [{"measurement": "Km", "setting": "[4]", "value": 24, "unit": "µM"}, {"measurement": "kcat", "setting": "[4]", "value": 16, "unit": "s⁻¹"}, {"measurement": "kcat/Km", "setting": "[4]", "value": 670000, "unit": "M⁻¹ s⁻¹"}, {"measurement": "Km", "setting": "[5]", "value": 315, "unit": "µM"}, {"measurement": "kcat", "setting": "[5]", "value": 0.053, "unit": "s⁻¹"}, {"measurement": "kcat/Km", "setting": "[5]", "value": 200, "unit": "M⁻¹ s⁻¹"}]}
{"molecule": "EcMtnA (Escherichia coli S88) (protein) MNIKGKHYRTVWVSGDGKAVEIIDQTKLPFKFEVVALTSAEMAATAIQDMWVRGAPLIGVVAAYGIALGMNHDASDMGLQRYYDLLIKTRPTAINLKWALDRMIDTLKDLCVSERKDVAWALAAEIAEEDVALCEQIGLHGAEVIREIAQKKPAGSVVNILTHCNAGWLATVDWGTALSPIYKAHENGIPVHVWVDETRPRNQGGLTAFELGSHGIPHTLIADNAGGHLMQHGDVDLCIVGTDRTTARGDVCNKIGTYLKALAAHDNHVPFYVALPSPTIDWTIEDGKSIPIEQRDGKEQSHVYGINPQGELSWVNTAPEGTRCGNYAFDVTPARYITGFITERGVCAASKSALADMFADLKSKALQGEQH", "values": [{"measurement": "Km", "setting": "[6]", "value": 222, "unit": "µM"}, {"measurement": "kcat", "setting": "[6]", "value": 2.02, "unit": "s⁻¹"}, {"measurement": "kcat/Km", "setting": "[6]", "value": 9100, "unit": "M⁻¹ s⁻¹"}, {"measurement": "Km", "setting": "[7]", "value": 50, "unit": "µM"}, {"measurement": "kcat", "setting": "[7]", "value": 0.49, "unit": "s⁻¹"}, {"measurement": "kcat/Km", "setting": "[7]", "value": 9800, "unit": "M⁻¹ s⁻¹"}]}
{"molecule": "BsMtnA (Bacillus subtilis subsp. subtilis str. 168) (protein) MTHSFAVPRSVEWKETAITILNQQKLPDETEYLELTTKEDVFDAIVTLKVRGAPAIGITAAFGLALAAKDIETDNVTEFRRRLEDIKQYLNSSRPTAINLSWALERLSHSVENAISVNEAKTNLVHEAIQIQVEDEETCRLIGQNALQLFKKGDRIMTICNAGSIATSRYGTALAPFYLAKQKDLGLHIYACETRPVLQGSRLTAWELMQGGIDVTLITDSMAAHTMKEKQISAVIVGADRIAKNGDTANKIGTYGLAILANAFDIPFFVAAPLSTFDTKVKCGADIPIEERDPEEVRQISGVRTAPSNVPVFNPAFDITPHDLISGIITEKGIMTGNYEEEIEQLFKGEKVH", "values": [{"measurement": "Km", "setting": "[8]", "value": 114, "unit": "µM"}, {"measurement": "kcat", "setting": "[8]", "value": 3.9, "unit": "s⁻¹"}, {"measurement": "kcat/Km", "setting": "[8]", "value": 35000, "unit": "M⁻¹ s⁻¹"}]}
